Reference: paper PMC4270374

Substrate: O=c1ccn([C@@H]2O[C@H](COP(=O)(O)OP(=O)(O)O[C@H]3O[C@@H]([C@H](O)CO)[C@H](O)[C@H]3O)[C@@H](O)[C@H]2O)c(=O)[nH]1
Test: purified protein
[1] = 25 mM HEPES, 125 mM NaCl, 20 mM dithionite, pH 7.5, 37 °C

Protein	Km (pH 7.5, 37.0 °C)	kcat/Km (pH 7.5, 37.0 °C)	Km [1]	kcat [1]	kcat/Km [1]
MtUGM (Mycobacterium tuberculosis H37Rv) (protein) MQPMTARFDLFVVGSGFFGLTIAERVATQLDKRVLVLERRPHIGGNAYSEAEPQTGIEVHKYGAHLFHTSNKRVWDYVRQFTDFTDYRHRVFAMHNGQAYQFPMGLGLVSQFFGKYFTPEQARQLIAEQAAEIDTADAQNLEEKAISLIGRPLYEAFVKGYTAKQWQTDPKELPAANITRLPVRYTFDNRYFSDTYEGLPTDGYTAWLQNMAADHRIEVRLNTDWFDVRGQLRPGSPAAPVVYTGPLDRYFDYAEGRLGWRTLDFEVEVLPIGDFQGTAVMNYNDLDVPYTRIHEFRHFHPERDYPTDKTVIMREYSRFAEDDDEPYYPINTEADRALLATYRARAKSETASSKVLFGGRLGTYQYLDMHMAIASALNMYDNVLAPHLRDGVPLLQDGA	78 ± 16 µM	910000 ± 150000 M⁻¹ s⁻¹			
AfUGM (wild-type) (Aspergillus fumigatus) (protein) MTHPDISVDVLVIGAGPTGLGAAKRLNQIDGPSWMIVDSNETPGGLASTDVTPEGFLYDVGGHVIFSHYKYFDDCLDEALPKEDDWYTHQRISYVRCQGQWVPYPFQNNISMLPKEEQVKCIDGMIDAALEARVANTKPKTFDEWIVRMMGTGIADLFMRPYNFKVWAVPTTKMQCAWLGERVAAPNLKAVTTNVILGKTAGNWGPNATFRFPARGGTGGIWIAVANTLPKEKTRFGEKGKVTKVNANNKTVTLQDGTTIGYKKLVSTMAVDFLAEAMNDQELVGLTKQLFYSSTHVIGVGVRGSRPERIGDKCWLYFPEDNCPFYRATIFSNYSPYNQPEASKKLPTMQLADGSRPQSTEAKEGPYWSIMLEVSESSMKPVNQETILADCIQGLVNTEMLKPTDEIVSTYHRRFDHGYPTPTLEREGALTQILPKLQDKDIWSRGRFGSWRYEVGNQDHSFMLGVEAVDNIVNGAVELTLNYPDFVNGRQNTERRLVDGAQVFAKSKAQ			110 ± 15 µM	72 ± 4 s⁻¹	650000 ± 90000 M⁻¹ s⁻¹
